Reference: the supplement of paper PMC7877785
± gives the uncertainty stated by the source.

Assay: self-splicing fitness, log relative to wild type (ln ratio); higher = more splicing; Tetrahymena group I intron in knt gene, E. coli kanamycin selection, DiMSum; sequences stand for … in CUCUCU…GGAGGGAAAAGUUAUCAGGCAUGCACCUGGUAGCUAGUCUUUAAACCAAUAGAUUGCAUCGGUUUAAAAGGCAAGACCGUCAAAUUGCGGGAAAGGGGUCAACAGCCGUUCAGUACCAAGUCUCAGGGGAAACUUUGAGAUGGCCUUGCAAAGGGUAUGGUAAUAAGCUGACGGACAUGGUCCUAACCACGCAGCCAAGUCCUAAGUCAACAGAUCUUCUGUUGAUAUGGAUGCAGUUCACAGACUAAAUGUCGGUCGGGGAAGAUGUAUUCUUCUCAUAAGAUAUAGUCGGACCUCUCCUUAAUGGGAGCUAGCGGAUGAAGUGAUGCAACACUGGAGCCGCUGGGAACUAAUUUGUAUGCGAAAGUAUAUUGAUUAGUUUUGGAGUACUCGUGGUCG
In short: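 The eight P1ex-region nucleotides of an intron in the knt kanamycin-resistance gene on pET-22b(+) were all randomised and the library put into E. coli BL21(DE3). Six replicate transformations were grown overnight at 37°C or 30°C on LB agar with or without 25 μg/mL kanamycin, together with 100 μg/mL carbenicillin, 50 μM IPTG and 0.2% rhamnose. Colonies were pooled and amplicon-sequenced on an Illumina HiSeq 2500. Fitness from DiMSum is the error-weighted combination of wild-type-normalised replicate fold changes, kanamycin over none.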

Sequence | self-splicing fitness (ln) (30 °C) | self-splicing fitness (ln) (37 °C)
ACGGAGCAAUAUUACGCACA | -2.08 ± 0.36 | -2.46 ± 0.37
ACGGAGCAAUAUUACGCAGC | -3.02 ± 0.3 | 
ACGGAGCAAUAUUACGCCCA | -2.81 ± 0.43 | -1.92 ± 0.37
ACGGAGCAAUAUUACGCGGG | -2.3 ± 0.18 | -0.332 ± 0.15
ACGGAGCAAUAUUACGCUAA |  | 0.642 ± 0.24
ACGGAGCAAUAUUACGCUGU |  | -2.56 ± 0.25
ACGGAGCAAUAUUACGGGGC | -3.39 ± 0.35 | -3.86 ± 0.46
ACGGAGCAAUAUUACGGUGA | -3.69 ± 0.23 | -1.55 ± 0.21
ACGGAGCAAUAUUACGUAAC | -3.72 ± 0.37 | -1.66 ± 0.22
ACGGAGCAAUAUUACGUGCA |  | -1.4 ± 0.22
ACGGAGCAAUAUUACGUGCU | -2.34 ± 0.19 | 
ACGGAGCAAUAUUACGUGGA | -3.74 ± 0.37 | -2.26 ± 0.24
ACGGAGCAAUAUUACGUUGA | -2.94 ± 0.2 | -2.29 ± 0.21
ACGGAGCAAUAUUACGUUGC |  | -3.12 ± 0.4
ACGUAGCAAUAUUACGACCG | -0.218 ± 0.1 | 0.0549 ± 0.12
ACGUAGCAAUAUUACGAGCC | -3.28 ± 0.35 | -2.55 ± 0.44
ACGUAGCAAUAUUACGAGCG | -1.53 ± 0.11 | -0.668 ± 0.12
ACGUAGCAAUAUUACGAUGG | -3.99 ± 0.35 | -1.52 ± 0.29
ACGUAGCAAUAUUACGCACG | -2.31 ± 0.2 | -1.98 ± 0.19
ACGUAGCAAUAUUACGCAUC | -3.3 ± 0.22 | -0.518 ± 0.29
ACGUAGCAAUAUUACGCCUA | -0.946 ± 0.1 | -0.412 ± 0.099
ACGUAGCAAUAUUACGCCUG | -1.29 ± 0.077 | 0.00322 ± 0.11
ACGUAGCAAUAUUACGCGCU | -1.89 ± 0.11 | -0.586 ± 0.16
ACGUAGCAAUAUUACGCUAA | -1.84 ± 0.21 | -0.48 ± 0.13
ACGUAGCAAUAUUACGCUGG | -2.32 ± 0.18 | -2.64 ± 0.41

Sequence | self-splicing fitness (ln) (30 °C) | self-splicing fitness (ln) (37 °C)
ACGUAGCAAUAUUACGCUUA | -1.49 ± 0.11 | -0.764 ± 0.12
ACGUAGCAAUAUUACGGACU | -2.66 ± 0.3 | -0.29 ± 0.24
ACGUAGCAAUAUUACGGCUG | -3.21 ± 0.28 | -1.83 ± 0.25
ACGUAGCAAUAUUACGGGAU | -2.67 ± 0.16 | -1.97 ± 0.16
ACGUAGCAAUAUUACGGGCU | -1.15 ± 0.063 | -1.18 ± 0.1
ACGUAGCAAUAUUACGGGUC | -3.56 ± 0.19 | -3.42 ± 0.25
ACGUAGCAAUAUUACGGUAA | -1.67 ± 0.2 | -1.39 ± 0.14
ACGUAGCAAUAUUACGGUGG | -5.08 ± 0.28 | -2.92 ± 0.16
ACGUAGCAAUAUUACGGUUC | -3.18 ± 0.17 | -2.49 ± 0.31
ACGUAGCAAUAUUACGGUUG | -2.6 ± 0.1 | -0.902 ± 0.12
ACGUAGCAAUAUUACGGUUU | -2.03 ± 0.096 | -0.957 ± 0.11
ACGUAGCAAUAUUACGUAAG | -3.51 ± 0.17 | -2.45 ± 0.22
ACGUAGCAAUAUUACGUAAU | -2.35 ± 0.13 | -2.34 ± 0.15
ACGUAGCAAUAUUACGUCCU | -1.99 ± 0.13 | -0.452 ± 0.13
ACGUAGCAAUAUUACGUCGG | -3.32 ± 0.33 | -2.07 ± 0.2
ACGUAGCAAUAUUACGUCGU | -3.52 ± 0.15 | -2.59 ± 0.15
ACGUAGCAAUAUUACGUGCA | -2.38 ± 0.17 | -0.124 ± 0.096
ACGUAGCAAUAUUACGUUUG | -3.46 ± 0.17 | -2.95 ± 0.18
ACUAAGCAAUAUUACGACGG | -0.271 ± 0.074 | 0.203 ± 0.094
ACUAAGCAAUAUUACGAGUA | -2.35 ± 0.17 | -1.78 ± 0.18
ACUAAGCAAUAUUACGAUGA | -0.267 ± 0.068 | -0.253 ± 0.076
ACUAAGCAAUAUUACGCAGA | -1.89 ± 0.092 | -1.5 ± 0.083
ACUAAGCAAUAUUACGCAGG | -2.02 ± 0.088 | -0.927 ± 0.092
ACUAAGCAAUAUUACGCCCU | 0.438 ± 0.23 | -0.36 ± 0.26
ACUAAGCAAUAUUACGCGGC | -3.74 ± 0.23 | -1.85 ± 0.18

Sequence | self-splicing fitness (ln) (30 °C) | self-splicing fitness (ln) (37 °C)
ACUAAGCAAUAUUACGCUUG | -3.11 ± 0.21 | -2.1 ± 0.19
ACUAAGCAAUAUUACGGCAG | -1.71 ± 0.1 | -0.238 ± 0.11
ACUAAGCAAUAUUACGGCCC | -0.668 ± 0.18 | -0.484 ± 0.27
ACUAAGCAAUAUUACGGCCG | -0.147 ± 0.087 | -0.306 ± 0.12
ACUAAGCAAUAUUACGGCGG | -0.98 ± 0.07 | -0.452 ± 0.1
ACUAAGCAAUAUUACGUACA | -1.55 ± 0.086 | -1.14 ± 0.087
ACUAAGCAAUAUUACGUACG | -1.76 ± 0.12 | -0.814 ± 0.16
ACUAAGCAAUAUUACGUCCA | -1.54 ± 0.12 | -1.22 ± 0.16
ACUAAGCAAUAUUACGUCCU | -0.876 ± 0.095 | 0.0118 ± 0.14
ACUAAGCAAUAUUACGUCGC | -3.12 ± 0.18 | -1.86 ± 0.2
ACUAAGCAAUAUUACGUCUU | -1.5 ± 0.075 | -1.14 ± 0.078
ACUAAGCAAUAUUACGUUAG | -2.59 ± 0.13 | -2.1 ± 0.17
ACUAAGCAAUAUUACGUUUC | -4.35 ± 0.26 | -1.85 ± 0.19
ACUCAGCAAUAUUACGACAG | -1.94 ± 0.11 | -0.382 ± 0.12
ACUCAGCAAUAUUACGAGCU | -1.04 ± 0.064 | -0.447 ± 0.079
ACUCAGCAAUAUUACGAUUU | 0.00163 ± 0.057 | 0.417 ± 0.073
ACUCAGCAAUAUUACGCAGC | -2.14 ± 0.079 | -0.903 ± 0.093
ACUCAGCAAUAUUACGCAUA | -1.35 ± 0.082 | -0.543 ± 0.094
ACUCAGCAAUAUUACGCAUU | -0.878 ± 0.049 | -0.294 ± 0.06
ACUCAGCAAUAUUACGCCAG | -0.898 ± 0.087 | -1.27 ± 0.15
ACUCAGCAAUAUUACGCCGU | -1.24 ± 0.076 | -0.58 ± 0.093
ACUCAGCAAUAUUACGCCUG | -3.39 ± 0.22 | -1.5 ± 0.2
ACUCAGCAAUAUUACGCGGU | -3.73 ± 0.19 | -2.01 ± 0.21
ACUCAGCAAUAUUACGCGUG | -1.35 ± 0.073 | -0.547 ± 0.081
ACUCAGCAAUAUUACGCUCA | -0.566 ± 0.096 | 0.105 ± 0.14

Sequence | self-splicing fitness (ln) (30 °C) | self-splicing fitness (ln) (37 °C)
ACUCAGCAAUAUUACGCUCG | -0.26 ± 0.087 | 0.176 ± 0.12
ACUCAGCAAUAUUACGGCGG | -0.825 ± 0.078 | -0.0415 ± 0.095
ACUCAGCAAUAUUACGGGAG | -1.56 ± 0.051 | -1.11 ± 0.067
ACUCAGCAAUAUUACGGUCC | -1.91 ± 0.11 | -0.708 ± 0.14
ACUCAGCAAUAUUACGUAGC | -1.24 ± 0.069 | -0.786 ± 0.11
ACUCAGCAAUAUUACGUCAA | -2.56 ± 0.1 | -1.78 ± 0.14
ACUCAGCAAUAUUACGUCGC | -2.57 ± 0.24 | -0.332 ± 0.17
ACUCAGCAAUAUUACGUGGA | -1.96 ± 0.078 | -1.54 ± 0.082
ACUCAGCAAUAUUACGUGGU | -3.75 ± 0.12 | -2.75 ± 0.12
ACUCAGCAAUAUUACGUUUC | -2.88 ± 0.17 | -2.33 ± 0.21
ACUGAGCAAUAUUACGAAAA |  | -1.32 ± 0.43
ACUGAGCAAUAUUACGAAAC | -4.21 ± 0.42 | -1.42 ± 0.38
ACUGAGCAAUAUUACGAAAG | -2.67 ± 0.15 | -1.73 ± 0.18
ACUGAGCAAUAUUACGAAGC |  | -2.04 ± 0.46
ACUGAGCAAUAUUACGAAUC | -3.54 ± 0.36 | -2.55 ± 0.21
ACUGAGCAAUAUUACGACCC |  | -0.357 ± 0.33
ACUGAGCAAUAUUACGACUC | -2.18 ± 0.16 | -1.13 ± 0.2
ACUGAGCAAUAUUACGAGAC | -2.78 ± 0.22 | -2.63 ± 0.2
ACUGAGCAAUAUUACGAGAU | -4.18 ± 0.33 | -2.27 ± 0.21
ACUGAGCAAUAUUACGAGCC | -3.59 ± 0.4 | 
ACUGAGCAAUAUUACGAUGC | -2.69 ± 0.16 | -0.416 ± 0.15
ACUGAGCAAUAUUACGAUUU | -1.12 ± 0.082 | -0.446 ± 0.12
ACUGAGCAAUAUUACGCAUA | -2.14 ± 0.31 | -1.77 ± 0.44
